We go through one molecule from patent US20180057581A1 (MorphoSys, published 2018).

The target of one assay is T1, human M-CSF (human, UniProt P09603 33-255, limits assumed).
T1 construct: also called M-CSF (human); CSF-1
T1 sequence: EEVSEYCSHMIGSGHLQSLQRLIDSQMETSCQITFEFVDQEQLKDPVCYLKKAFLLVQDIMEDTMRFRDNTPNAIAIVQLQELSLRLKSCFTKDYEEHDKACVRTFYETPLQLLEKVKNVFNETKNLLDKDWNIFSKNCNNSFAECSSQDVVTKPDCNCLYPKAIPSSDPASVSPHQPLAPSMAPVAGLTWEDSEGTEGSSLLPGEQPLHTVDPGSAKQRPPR
Description: ELISA. The protocol:
(§1) BSA was used as a negative control substrate.
(§2) After blocking of plates with 5% skim milk powder in PBS, Fab-containing E. coli lysates, IgG-containing cell culture supernatants or purified IgG or Fab proteins were added. Binding of Fabs or IgGs was detected by F(ab)₂ specific goat anti-human IgG conjugated to alkaline phosphatase (Dianova Cat# 109-055-097; diluted 1:5000) using Attophos fluorescence substrate (Roche, #11681982001). Fluorescence emission at 535 nm was recorded with excitation at 430 nm.

Assay [1] has as its target T2, Recombinant cynomolgus monkey sgM-CSF (cynomolgus (Macaca fascicularis), UniProt P09603 33-255 (human entry), limits assumed).
T2 construct: used also where only 'cynomolgus M-CSF' is printed (ELISA result, SET); also called cynomolgus sgM-CSF; cyno sgM-CSF
T2 chain: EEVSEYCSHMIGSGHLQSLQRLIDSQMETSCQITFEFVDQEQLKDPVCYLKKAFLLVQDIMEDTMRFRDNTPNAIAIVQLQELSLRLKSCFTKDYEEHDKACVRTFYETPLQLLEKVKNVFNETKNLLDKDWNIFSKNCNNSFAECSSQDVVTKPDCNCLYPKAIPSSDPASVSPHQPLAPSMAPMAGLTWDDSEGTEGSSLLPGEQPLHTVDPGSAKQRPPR
Description: ELISA. The procedure:
as §1, §2
Background: An ELISA detects its analyte on a solid surface through an enzyme-linked reagent.

The next assay concerns the target GM-CSF (Homo sapiens (Human), UniProt P04141 18-144). As to the kind of experiment: not described (Table 12, criterion Binding).
In the next assay the target is T3, Fibrinogen (bovine) (bovine, UniProt P02672 20-615; P02676 1-468; P12799 25-444).
T3 sequence (looked up) 1: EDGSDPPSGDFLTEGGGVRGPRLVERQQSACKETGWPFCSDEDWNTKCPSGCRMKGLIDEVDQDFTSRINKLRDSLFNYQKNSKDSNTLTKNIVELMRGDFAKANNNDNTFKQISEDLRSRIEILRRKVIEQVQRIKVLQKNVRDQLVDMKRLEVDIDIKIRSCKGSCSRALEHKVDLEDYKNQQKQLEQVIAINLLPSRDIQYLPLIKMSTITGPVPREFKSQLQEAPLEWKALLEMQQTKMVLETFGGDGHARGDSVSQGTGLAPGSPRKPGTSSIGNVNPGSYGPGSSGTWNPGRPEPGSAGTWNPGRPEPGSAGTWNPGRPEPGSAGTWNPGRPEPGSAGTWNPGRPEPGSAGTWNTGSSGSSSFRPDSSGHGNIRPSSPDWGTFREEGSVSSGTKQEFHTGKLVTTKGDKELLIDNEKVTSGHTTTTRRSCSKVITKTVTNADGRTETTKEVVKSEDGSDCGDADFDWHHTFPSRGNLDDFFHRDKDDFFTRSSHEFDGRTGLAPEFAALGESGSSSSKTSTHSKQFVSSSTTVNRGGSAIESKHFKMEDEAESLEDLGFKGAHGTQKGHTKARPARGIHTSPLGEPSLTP
T3 sequence (looked up) 2: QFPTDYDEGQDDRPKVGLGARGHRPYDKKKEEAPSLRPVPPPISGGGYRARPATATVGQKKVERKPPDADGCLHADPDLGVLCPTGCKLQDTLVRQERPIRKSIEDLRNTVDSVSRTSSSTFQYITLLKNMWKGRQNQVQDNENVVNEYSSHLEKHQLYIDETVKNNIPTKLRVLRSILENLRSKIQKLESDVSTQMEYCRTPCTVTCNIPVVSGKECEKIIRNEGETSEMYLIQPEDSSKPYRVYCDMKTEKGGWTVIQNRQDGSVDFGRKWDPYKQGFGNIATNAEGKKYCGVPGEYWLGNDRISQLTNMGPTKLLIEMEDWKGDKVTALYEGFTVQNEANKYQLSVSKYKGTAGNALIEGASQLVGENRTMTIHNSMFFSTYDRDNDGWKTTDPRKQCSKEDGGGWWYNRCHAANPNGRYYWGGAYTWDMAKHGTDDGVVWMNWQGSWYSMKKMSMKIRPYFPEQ
T3 sequence (looked up) 3: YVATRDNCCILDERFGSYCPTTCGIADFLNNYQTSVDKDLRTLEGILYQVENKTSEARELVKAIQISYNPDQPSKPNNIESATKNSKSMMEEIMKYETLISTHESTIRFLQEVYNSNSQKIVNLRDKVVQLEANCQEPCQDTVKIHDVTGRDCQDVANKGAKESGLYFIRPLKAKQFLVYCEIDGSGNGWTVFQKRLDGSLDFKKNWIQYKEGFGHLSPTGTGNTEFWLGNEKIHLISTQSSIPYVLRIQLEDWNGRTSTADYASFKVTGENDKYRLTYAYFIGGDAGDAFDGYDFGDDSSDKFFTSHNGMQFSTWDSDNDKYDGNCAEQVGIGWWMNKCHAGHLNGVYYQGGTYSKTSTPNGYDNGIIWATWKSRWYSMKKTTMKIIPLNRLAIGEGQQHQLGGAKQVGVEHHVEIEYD
As to the kind of experiment: MSD specificity profiling, coated protein, Camille at 100 nM. The protocol:
(§3) For this specificity profiling test the different proteins and controls were coated on two 384-well MSD plates with a concentration of 1 μg/ml at 4° C. over night. Plates were blocked with BSA and washed three times with PBS with 0.05% (v/v) Tween 20. Antibody samples were diluted to 100 nM and 10 nM in assay buffer (PBS with 0.5% (w/v) BSA, 0.05% (v/v) Tween 20). […] Samples and controls were incubated for three hours at room temperature. The plates were washed three times and 30 μl detection antibody (ECL-labeled anti-human Fab) were added per well and incubated for 1 h. After washing, MSD Read Buffer T with surfactant was added and electrochemiluminescence signals were detected using a Sector Imager 6000 (Meso Scale Discovery, Gaithersburg, Md., USA).

The target in assay [2] is Trypsin inhibitor (Soybean) (Soybean). The assay is described as above. The protocol:
as §3

Assay [3] has as its target Anti-human Fab (Dianova, # 109-005-097). The description is as above. The procedure: as §3
Assay [4] has as its target Cell surface receptor 1 (human) (human). Described as above. The procedure: as §3
For assay [5], the target named is T2, Recombinant cynomolgus monkey sgM-CSF. Description: Table 12 summary, criterion Binding, Cynomolgus M-CSF; assay and antibody format not named there.

Chain of GM-CSF (P04141 18-144 limits assumed): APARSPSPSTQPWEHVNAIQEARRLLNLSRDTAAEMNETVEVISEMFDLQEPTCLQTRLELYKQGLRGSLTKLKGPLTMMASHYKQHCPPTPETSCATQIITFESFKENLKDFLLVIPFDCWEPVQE
Chain of Trypsin inhibitor (Soybean) (Soybean) (P01070 25-205): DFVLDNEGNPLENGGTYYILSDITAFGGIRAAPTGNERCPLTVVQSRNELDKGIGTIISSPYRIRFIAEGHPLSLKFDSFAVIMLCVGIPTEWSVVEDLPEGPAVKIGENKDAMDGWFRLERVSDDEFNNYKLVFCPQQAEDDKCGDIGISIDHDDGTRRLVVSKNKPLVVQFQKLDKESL

B1: Camille (format not stated) (antibody, V domains shown)
VH: QVQLQQSGPGLVKPSQTLSLTCAISGESVSTSSAAWNWIRQSPSRGLEWLGRTYYRSKWKHEYAVSVKSRITINPDTSKNQFSLQLNSVTPEDTAVYYCARDRYYYSAFDYWGQGTLVTVSS
VL: QSALTQPASVSGSPGQSITISCTGTSSDVGGYNSVSWYQQHPGKAPKLLIYAVSNRPSGVSNRFSGSKSGNTASLTISGLQAEDEADYYCASYDERFTRVFGGGTKLTVLG
notes: also called Antibody Camille
B1: the ELISA fluorescence units (with human M-CSF; in assay [1]) was more than 35000 units throughout. The binding result with GM-CSF was “no binding”. For the same molecule, the “signal normalized to reference antibody MOR03207” value (with Fibrinogen (bovine); in assay [2]; in assay [3]; in assay [4]) was 1 ratio throughout. Moreover, the Kd in assay [5] was found to be 0.025 nM.

Broadly, the Kd is a measure of binding affinity in units of concentration.
